Each block holds one compound with its values, some of them ahead of it.
What was measured:
[1] = biological target: PobR (product of SCO3209), full length, Streptomyces coelicolor (Streptomyces coelicolor); assay: SAXS
[2] = biological target: PobR (product of SCO3209), full length, Streptomyces coelicolor (Streptomyces coelicolor); assay: SEC
[3] = biological target: T1, PobR (PobRFL) (Streptomyces coelicolor (cosmid StE8; M600 is the wild-type strain used)) (UniProt Q9Z4X2); assay: DNase I footprinting
T1 sequence: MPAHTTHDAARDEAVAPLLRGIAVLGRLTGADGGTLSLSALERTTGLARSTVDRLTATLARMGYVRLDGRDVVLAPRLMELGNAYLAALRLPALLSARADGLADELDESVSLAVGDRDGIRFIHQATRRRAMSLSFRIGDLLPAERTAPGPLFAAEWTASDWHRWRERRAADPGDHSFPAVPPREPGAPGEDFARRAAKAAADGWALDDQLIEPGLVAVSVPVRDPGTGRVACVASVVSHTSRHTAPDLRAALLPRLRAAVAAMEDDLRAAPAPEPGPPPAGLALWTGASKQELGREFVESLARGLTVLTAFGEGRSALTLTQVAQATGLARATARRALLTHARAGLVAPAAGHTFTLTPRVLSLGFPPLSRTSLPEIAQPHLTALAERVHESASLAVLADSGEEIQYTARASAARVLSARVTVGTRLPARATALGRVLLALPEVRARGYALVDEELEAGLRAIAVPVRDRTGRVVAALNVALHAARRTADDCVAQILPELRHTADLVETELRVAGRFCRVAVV

[4] = biological target: T1, PobR (PobRFL) (Streptomyces coelicolor (cosmid StE8; M600 is the wild-type strain used)); assay: EMSA
[5] = biological target: T2, PobR (Streptomyces coelicolor, UniProt Q9Z4X2); assay: ITC and crystal structure at […] Å; type: binding
T2 sequence (Q9Z4X2 1-524): T1 sequence

Compound: PobR (product of SCO3209), full length, Streptomyces coelicolor (natural protein)
stoichiometry N [1]: 2 | stoichiometry N [2]: 2

Compound: GCATCGGTCGTTCCCTTCGATCGGCGTCGTTGCCTTGCTCGAGCCGGCAGTTGTTCGCGTCGCGTTGTCGCGTTGTCGCCTGTTCGCGTGGTGAAAATTTCTTCACCATCAACTGCGC (double strand) [118-bp pobA promoter probe, 5'-32P]
binding [3]: binds

Compound: GCATCGGTCGTTCCCTTCGATCGGCGTCGTTGCCTTGCTCGAGCCGGCAGTTGTTCGCGTCGCGTTGTCGCGTTGTCGCCTGTTCGCGTGGTGAAAATTTCTTCACCATCAACTGCGC (double strand) [118-bp pobA promoter probe]
binding [4]: binds

Kd [5]: 5.8 ± 0.5 µM
Compound: O=C(O)c1ccc(O)cc1 [PHB, para-hydroxybenzoate]

Source: publication PMC5814911 (Nucleic Acids Research, 2017)
